Data: publication PMC5343618

Biological target: T1, alkaline phosphatase D (PhoD) with a C-terminal 6-His tag (PhoD-H) (B. subtilis 168), P42251
T1 chain: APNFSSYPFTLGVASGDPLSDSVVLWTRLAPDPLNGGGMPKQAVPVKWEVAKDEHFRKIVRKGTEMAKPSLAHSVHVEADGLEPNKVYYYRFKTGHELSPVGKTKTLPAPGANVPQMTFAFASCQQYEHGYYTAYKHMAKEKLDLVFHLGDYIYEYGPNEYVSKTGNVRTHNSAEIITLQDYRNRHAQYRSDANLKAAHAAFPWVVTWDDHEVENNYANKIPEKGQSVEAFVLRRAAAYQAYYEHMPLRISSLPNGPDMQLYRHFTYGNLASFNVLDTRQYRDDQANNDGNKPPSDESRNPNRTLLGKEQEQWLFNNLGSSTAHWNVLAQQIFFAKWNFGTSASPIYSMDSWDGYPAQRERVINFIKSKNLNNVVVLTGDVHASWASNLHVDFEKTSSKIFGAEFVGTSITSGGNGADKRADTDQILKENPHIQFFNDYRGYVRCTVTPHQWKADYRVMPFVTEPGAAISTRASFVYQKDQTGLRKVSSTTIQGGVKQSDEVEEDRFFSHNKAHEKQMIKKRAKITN
Assay: cross-linking; in vivo cross-linking of B. subtilis cells with 0.5 mM DSS in PBS pH 8.3, 20 min at 37 °C; cells recovered 1 h in fresh medium; 10% SDS-PAGE with β-mercaptoethanol and anti-His immunoblot of cell and supernatant fractions
Conditions: remark: other sources report otherwise

B1: alkaline phosphatase D (PhoD) with a C-terminal 6-His tag (PhoD-H), P42251 57-583 (enzyme)
chain: APNFSSYPFTLGVASGDPLSDSVVLWTRLAPDPLNGGGMPKQAVPVKWEVAKDEHFRKIVRKGTEMAKPSLAHSVHVEADGLEPNKVYYYRFKTGHELSPVGKTKTLPAPGANVPQMTFAFASCQQYEHGYYTAYKHMAKEKLDLVFHLGDYIYEYGPNEYVSKTGNVRTHNSAEIITLQDYRNRHAQYRSDANLKAAHAAFPWVVTWDDHEVENNYANKIPEKGQSVEAFVLRRAAAYQAYYEHMPLRISSLPNGPDMQLYRHFTYGNLASFNVLDTRQYRDDQANNDGNKPPSDESRNPNRTLLGKEQEQWLFNNLGSSTAHWNVLAQQIFFAKWNFGTSASPIYSMDSWDGYPAQRERVINFIKSKNLNNVVVLTGDVHASWASNLHVDFEKTSSKIFGAEFVGTSITSGGNGADKRADTDQILKENPHIQFFNDYRGYVRCTVTPHQWKADYRVMPFVTEPGAAISTRASFVYQKDQTGLRKVSSTTIQGGVKQSDEVEEDRFFSHNKAHEKQMIKKRAKITN
  stoichiometry N: 2
